Patent US20150152185A1

What was measured:
[1] = molecular target: CD123 (human IL-3Ralpha), form in the assay not stated (human) (UniProt P26951); test: method not stated
[2] = molecular target: CD123 (IL-3 receptor alpha chain, IL-3Ralpha) on cells (human) (UniProt P26951); test: cell-based or functional assay

Kd [1]: 1.06 nM
% CD107a positive NK cells, PBMC with AML sample RMH003 and CSL360 [2]: 39%
% lysis, 51Cr release ADCC, CTLEN cells, E:T 10:1 [2]: 10%
% lysis, 51Cr release ADCC, CTLEN cells, E:T 100:1 [2]: 51%
% lysis, 51Cr release ADCC, SL (AML) cells, E:T 10:1 [2]: 2.4%
% lysis, 51Cr release ADCC, SL (AML) cells, E:T 100:1 [2]: 15%
% lysis, calcein release ADCC, RBH013 (AML), E:T 10:1 [2]: 0%
% lysis, calcein release ADCC, RBH013 (AML), E:T 100:1 [2]: 0%
% lysis, calcein release ADCC, RMH003 (AML), E:T 10:1 [2]: 39.2%
% lysis, calcein release ADCC, RMH003 (AML), E:T 100:1 [2]: 82.6%
% lysis, calcein release ADCC, RMH008 (AML), E:T 10:1 [2]: 59.5%
% lysis, calcein release ADCC, RMH008 (AML), E:T 100:1 [2]: 100%
% lysis, calcein release ADCC, RMH009 (B-ALL), E:T 10:1 [2]: 0%
% lysis, calcein release ADCC, RMH009 (B-ALL), E:T 100:1 [2]: 0%
% lysis, calcein release ADCC, RMH009* (B-ALL, repeat with other PBMC), E:T 10:1 [2]: 0%
% lysis, calcein release ADCC, RMH009* (B-ALL, repeat with other PBMC), E:T 100:1 [2]: 0%
% lysis, calcein release ADCC, RMH010 (AML), E:T 10:1 [2]: 4%
% lysis, calcein release ADCC, RMH010 (AML), E:T 100:1 [2]: 0%
% of NK cells expressing CD107a, CSL360 at E:T 1:1, CTLEN-001 [2]: 6.7%
% of NK cells expressing CD107a, CSL360 at E:T 1:1, CTLEN-008 [2]: 24%
% of NK cells expressing CD107a, CSL360 at E:T 1:1, CTLEN-010 [2]: 5.7%
% of NK cells expressing CD107a, CSL360 at E:T 1:1, CTLEN-011-PBMC-1 [2]: 8.1%
% of NK cells expressing CD107a, CSL360 at E:T 1:1, CTLEN-011-PBMC-2 [2]: 10.5%
% of NK cells expressing CD107a, CSL360 at E:T 1:1, EL4hi-002 [2]: 2.9%
% of NK cells expressing CD107a, CSL360 at E:T 1:1, EL4hi-003 [2]: 15%
% of NK cells expressing CD107a, CSL360 at E:T 1:1, EL4hi-004 [2]: 16%
% of NK cells expressing CD107a, CSL360 at E:T 1:1, EL4hi-005 [2]: 21%
% of NK cells expressing CD107a, CSL360 at E:T 1:1, EL4hi-010 [2]: 34%
% of NK cells expressing CD107a, CSL360 at E:T 1:1, EL4hi-011-PBMC-1 [2]: 15.5%
% of NK cells expressing CD107a, CSL360 at E:T 1:1, EL4hi-011-PBMC-2 [2]: 23.5%
% of NK cells expressing CD107a, CSL360 at E:T 1:1, EL4hi/lo-001 [2]: 2.8%
% of NK cells expressing CD107a, CSL360 at E:T 1:1, RBH009^a (AML) [2]: 8.5%
% of NK cells expressing CD107a, CSL360 at E:T 1:1, RBH009^b (AML) [2]: 8%
% of NK cells expressing CD107a, CSL360 at E:T 1:1, RBH013^a (AML) [2]: 10%
% of NK cells expressing CD107a, CSL360 at E:T 1:1, RBH013^b (AML) [2]: 22%
% of NK cells expressing CD107a, CSL360 at E:T 1:1, RMH003^a (AML) [2]: 30%
% of NK cells expressing CD107a, CSL360 at E:T 1:1, RMH003^b (AML) [2]: 33%
% of NK cells expressing CD107a, CSL360 at E:T 1:1, RMH003^c (AML) [2]: 38%
% of NK cells expressing CD107a, CSL360 at E:T 1:1, RMH007 (B-ALL) [2]: 16.4%
% of NK cells expressing CD107a, CSL360 at E:T 1:1, RMH008^a (AML) [2]: 9%
% of NK cells expressing CD107a, CSL360 at E:T 1:1, RMH008^b (AML) [2]: 16%
% of NK cells expressing CD107a, CSL360 at E:T 1:1, RMH008^c (AML) [2]: 8.7%
% of NK cells expressing CD107a, CSL360 at E:T 1:1, RMH009^a (B-ALL) [2]: 3%
% of NK cells expressing CD107a, CSL360 at E:T 1:1, RMH009^b (B-ALL) [2]: 1.7%
% of NK cells expressing CD107a, CSL360 at E:T 1:1, RMH009^c (B-ALL) [2]: 7.4%
% of NK cells expressing CD107a, CSL360 at E:T 1:1, RMH010^a (AML) [2]: 14%
% of NK cells expressing CD107a, CSL360 at E:T 1:1, RMH010^b (AML) [2]: 25.5%
% of NK cells expressing CD107a, CSL360 at E:T 1:1, RMH011 (AML) [2]: 6.6%
% of NK cells expressing CD107a, CSL360 at E:T 1:1, TF-1 (GM-CSF) [2]: 0.7%
% of NK cells expressing CD107a, CSL360 at E:T 1:1, TF-1 (IL-3) [2]: 1.45%
IC50, IL-3-dependent TF-1 cell proliferation [2]: 5 nM
Substance: CSL360 (chimeric antibody: 7G3 variable regions on a human IgG1 constant region)
